# Source: patent US20190275101
# Target: T1, Fluorogenic peptide Glu(EDANS)-GDYELQGPEDLA-Lys(Dabcyl), p48/p41 cleavage site of the HOV polyprotein
# T1 chain: EGDYELQGPEDLAK
protein,measurement,value
"Houston virus protease (HOV Pro), GII.4 norovirus protease, wild-type (protein) APPSIWSRIVNFGSGWGFWVSPSLFITSTHVIPQGAKEFFGVPIKQIQVHKSGEFCRLRFPKPIRTDVTGMILEEGAPEGTVVTLLIKRSTGELMPLAARMGTHATMKIQGRTVGGQMGMLLTGSNAKSMDLGTTPGDCGCPYIYKRGNDYVVIGVHTAAARGGNTVICATQGSEGEATLE","FRET proteolytic activity at pH 8, 6.5 and 5","while HOV Pro was active at pH 8, it showed no activity at pH 6.5 and pH 5"
same,"kcat/Km, FRET assay at pH 8",kcat/Km=843.7 M^-1s^-1
HOV Pro R112A mutant (protein) APPSIWSRIVNFGSGWGFWVSPSLFITSTHVIPQGAKEFFGVPIKQIQVHKSGEFCRLRFPKPIRTDVTGMILEEGAPEGTVVTLLIKRSTGELMPLAARMGTHATMKIQGATVGGQMGMLLTGSNAKSMDLGTTPGDCGCPYIYKRGNDYVVIGVHTAAARGGNTVICATQGSEGEATLE,FRET proteolytic activity at pH 6.5,"Unlike the wild-type HOV Pro, R112A mutant was active at pH 6.5"
same,"kcat/Km, FRET assay at pH 8",kcat/Km=1215 M^-1s^-1
